According to patent publication US20050182242A1, “Global analysis of protein activities using proteome chips” (priority 2001, published 2005):

Columns and labels:
six different liposomes = assay: Reverse membrane assay: proteins spotted on nitrocellulose probed with six liposomes; format: binding; conditions: HRP-conjugated streptavidin
Protocol: B. A reverse assay was carried out to test for protein-lipid interactions. The proteins were prepared and spotted onto nitrocellulose filters in a dilution series and probed with the six different liposomes. As a control, the six liposomes were also added to the BSA-blocked membrane. After extensive washing, the bound liposomes were detected using an HRP-conjugated streptavidin and an ECL kit.
C. Linear correlation between the binding signals and the amounts of Rim15p in a membrane assay. When liposome-binding signals of Rim15p from the membrane assay (FIG. 4B) were plotted against the concentration gradient of the spotted Rim15p, the binding signals of PI(4)P, PI(3,4)P2, PI(3)P, and PI(4,5)P2 correlated linearly with the amounts of Rim15p.
Therefore, six proteins, i.e., Rim15p, Eno2p, Hxk1p, Sps1p, Yg1059wp, and Gcn2p, were further tested for phosphoinositol binding using two types of standard assays (Williamson, 2000, Nat. Struct Biol. 7(10):834-7). For Rim15p, Eno2p, and Hxk1p, PI(4,5)P2 liposomes were first adhered to a nitrocellulose membrane, which was then blocked by BSA; different amounts of the GST fusion proteins and a GST control were used to probe the membrane, and bound proteins were detected using anti-GST antibodies. […] The bound liposomes were detected using a horseradish peroxidase (“HRP”)-conjugated streptavidin.

PI(3,4,5)P3 liposomes = assay: Yeast proteome chip probed with PI(3,4,5)P3 liposomes; conditions: liposome binding signal on yeast proteome chip, Cy3-streptavidin detection
PI(3,4)P2 liposomes = assay: Yeast proteome chip probed with PI(3,4)P2 liposomes; conditions: liposome binding signal on yeast proteome chip, Cy3-streptavidin detection
PI(4,5)P2 liposomes = assay: Yeast proteome chip probed with PI(4,5)P2 liposomes; conditions: liposome binding signal on yeast proteome chip, Cy3-streptavidin detection
PI(4)P liposomes = assay: Yeast proteome chip probed with PI(4)P liposomes; conditions: liposome binding signal on yeast proteome chip, Cy3-streptavidin detection
[1] = system: phosphatidylcholine (PC) liposomes; assay: Yeast proteome chip probed with PC liposomes; conditions: liposome binding signal on yeast proteome chip, Cy3-streptavidin detection
Summary of the method: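 Signal comes from Cy3- or Cy5-streptavidin recognising 1% (w/w) biotin-DHPE carried in every liposome. Liposomes were PC alone or PC containing 5% (w/w) of a single phosphoinositide, applied to arrayed GST-fusion yeast proteins for 1 h at RT.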

PI(3)P liposomes = assay: Yeast proteome chip probed with PI(3)P liposomes; conditions: liposome binding signal on yeast proteome chip, Cy3-streptavidin detection

B1: SPS1: yeast GST-HisX6 fusion protein on proteome chip (protein, UniProt P08458 1-490, looked up)
Sporulation-specific protein 1: MESKEISIRSRTPPSKLYSIQSCIGRGNFGDVYKAVDRVTQEIVAIKVVNLEHSDEDIELLAQEIFFLAELKSPLITNYIATMLEDVSMWIVMEYCGGGSCSDLLKRSYVNGLPEEKVSFIIHEVTLGLKYLHEQRKIHRDIKAANILLNEEGMVKLGDFGVSGHIRSTLKRDTFVGTPYWMAPEVVCCEVDGYNEKADIWSLGITTYELLKGLPPLSKYDPMKVMTNLPKRKPPKLQGPFSDAAKDFVAGCLVKTPADRPSAYNLLSFEFVKNITITNLKSDVDLIKQKKVQERYTKVPKYPLQNRLYKNSNTVRGKEFWNFESTRLSTTQISKEELSPITQDSPTSSLNMESPYLLHGQTVTPITNPSSSSFRKCTQPVFELDSGMDIDSGCPNAQAETEIVPLSNHNKKHKKNDIQALKIEKFDYLKNIVSHILNRMYDRARDDETRKYVNEMLKQFIKTEANVPGFNEVFIEEISLRIEAIKKGFV
modifications: GST-His6 fusion tag
notes: yeast GST-HisX6 fusion protein on proteome chip
Question: Which “liposome binding in reverse membrane assay” value (six different liposomes) does the source give for B1 here?
Answer: bound all five phosphoinositol-containing liposomes nearly equally

Question: What about the “PI(3, 4, 5)P3” value (PI(3,4,5)P3 liposomes) of the same molecule?
Answer: 389.70

Question: What about the “PI(3, 4)P2” value (PI(3,4)P2 liposomes) of the same molecule?
Answer: 1147.50

Question: And the “PI(4, 5)P2” value (PI(4,5)P2 liposomes)?
Answer: 358.84

Question: What about the “PI(4)P” value (PI(4)P liposomes) of the same molecule?
Answer: 246.92

Question: What about the PC [1] of the same molecule?
Answer: 557.02

Question: And the “PI(3)P” value (PI(3)P liposomes)?
Answer: 88.50
